Test results as given in patent publication US20240116985A1 (published 2024).
Starred links: 1 amine or outer side, 2 acyl side, 3 side chain; linkers in the order of their positions; H or OH if unused. Positions of bridges follow the written chain, without caps; N, C: chain ends. Non-standard residues stand in square brackets, D forms with d. Primed or numbered codes have the meaning given here. PyrS2″ = (S)-3-amino-1-((pent-4-en-1-yloxy)carbonyl)pyrrolidine-3-carboxylic acid (stapling residue), C=CCCCOC(=O)N1CC[C@@](N[*:1])(C(=O)[*:2])C1; RdN″ = (R)-4-(((allyloxy)carbonyl)(methyl)amino)-2-amino-2-methylbutanoic acid (stapling residue), C=CCOC(=O)N(C)CC[C@@](C)(N[*:1])C(=O)[*:2]; TfeGA = (S)-2-amino-3-((carboxymethyl)(2,2,2-trifluoroethyl)amino)propanoic acid, O=C([C@H](CN(CC(=O)[*:3])CC(F)(F)F)N[*:1])[*:2]; B5(3) = 2,2-bis(4-pentenyl)glycine (stitching residue), C=CCCCC(CCCC=C)(N[*:1])C(=O)[*:2]; S7 = C[C@@](CCCCCC=[*:3])(N[*:1])C(=O)[*:2]; Phe(2-Cl) = N[C@@H](Cc1ccccc1Cl)C(=O)O; Bta = N[C@@H](Cc1csc2ccccc12)C(=O)O; αAllylPro = C=CC[C@@]1(C(=O)O)CCCN1; tBuAla = CC(C)(C)C[C@H](N)C(=O)O; 3Thi = N[C@@H](Cc1ccsc1)C(=O)O; Thr(ol) = C[C@@H](O)[C@H](N)CO

Legend:
beta-catenin [1] = molecular target: T1, beta-catenin (Homo sapiens (Human), UniProt P35222 2-781); assay: cell-based or functional assay
T1 sequence: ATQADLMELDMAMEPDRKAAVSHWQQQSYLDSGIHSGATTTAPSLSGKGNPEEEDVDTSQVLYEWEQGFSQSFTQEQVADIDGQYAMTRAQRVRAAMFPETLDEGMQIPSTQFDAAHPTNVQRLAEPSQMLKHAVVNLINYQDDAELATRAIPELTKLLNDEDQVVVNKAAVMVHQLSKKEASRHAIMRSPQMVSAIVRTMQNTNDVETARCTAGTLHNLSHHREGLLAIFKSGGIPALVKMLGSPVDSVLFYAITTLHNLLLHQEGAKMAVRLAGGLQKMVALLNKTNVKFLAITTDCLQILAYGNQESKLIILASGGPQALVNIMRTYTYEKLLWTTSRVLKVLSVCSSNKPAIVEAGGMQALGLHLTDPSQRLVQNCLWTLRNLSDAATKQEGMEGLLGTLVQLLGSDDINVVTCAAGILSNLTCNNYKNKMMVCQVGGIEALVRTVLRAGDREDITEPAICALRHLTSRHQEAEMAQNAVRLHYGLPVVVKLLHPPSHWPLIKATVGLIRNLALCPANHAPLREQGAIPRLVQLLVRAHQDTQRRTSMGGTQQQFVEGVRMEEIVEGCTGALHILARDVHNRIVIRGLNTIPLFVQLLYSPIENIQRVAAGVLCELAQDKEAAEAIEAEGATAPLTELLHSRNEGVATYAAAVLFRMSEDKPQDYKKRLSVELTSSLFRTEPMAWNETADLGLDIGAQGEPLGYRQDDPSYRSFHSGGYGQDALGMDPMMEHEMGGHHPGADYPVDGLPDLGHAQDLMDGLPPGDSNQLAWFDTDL

beta-catenin [2] = molecular target: T2, beta-catenin (Homo sapiens (Human), UniProt P35222 1-781); assay: cell-based or functional assay
T2 sequence: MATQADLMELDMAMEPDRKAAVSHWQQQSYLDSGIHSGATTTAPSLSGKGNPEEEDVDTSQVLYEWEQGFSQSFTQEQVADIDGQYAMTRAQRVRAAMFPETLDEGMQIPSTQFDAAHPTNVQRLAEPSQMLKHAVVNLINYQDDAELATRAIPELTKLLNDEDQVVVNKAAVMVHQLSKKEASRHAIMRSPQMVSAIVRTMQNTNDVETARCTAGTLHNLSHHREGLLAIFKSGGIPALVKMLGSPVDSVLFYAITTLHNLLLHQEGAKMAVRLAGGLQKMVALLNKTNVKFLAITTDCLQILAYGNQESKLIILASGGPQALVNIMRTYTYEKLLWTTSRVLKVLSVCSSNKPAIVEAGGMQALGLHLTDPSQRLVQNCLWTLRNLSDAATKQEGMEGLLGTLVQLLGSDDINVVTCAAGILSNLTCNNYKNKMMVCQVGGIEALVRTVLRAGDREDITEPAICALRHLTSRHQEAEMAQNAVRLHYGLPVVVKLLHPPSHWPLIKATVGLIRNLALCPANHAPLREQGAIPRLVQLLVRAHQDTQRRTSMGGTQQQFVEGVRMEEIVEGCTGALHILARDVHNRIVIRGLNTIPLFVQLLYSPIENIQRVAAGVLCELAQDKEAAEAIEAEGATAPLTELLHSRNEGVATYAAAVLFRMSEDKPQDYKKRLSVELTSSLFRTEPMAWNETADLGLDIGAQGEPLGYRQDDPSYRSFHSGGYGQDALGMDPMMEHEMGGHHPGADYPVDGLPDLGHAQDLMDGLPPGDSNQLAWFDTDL

[3] = molecular target: T3, full-length beta-Catenin (Uniprot ID P35222) (Homo sapiens (Human), UniProt P35222 2-781); assay: AlphaScreen competition vs biotin-TCF4(10-53) on full-length beta-catenin
T3 construct: The assay text says 'full-length'; also called B-Catenin; bCat
T3 sequence: T1 sequence
Method: Equal volume of the titrated peptide was added to the plate and incubated for 15 minutes at 20° C. Then 4 uL of donor and 4 uL acceptor beads at 10 ug/mL were added to the plate, for a 16 uL reaction pool and protected from light for 60 minutes at 20° C. prior to read. Reads were performed on a CLARIOstar plate reader (BMG Labtech) in duplicate, and data were fitted to a 1:1 binding model with hill slope using an in-house script. All provided concentrations are final concentrations.

Binder | DLD1 TCF c2 BrightGlo % Inhibition, 0.625 uM, replicate 1 (beta-catenin [2]) | DLD1 TCF c2 BrightGlo % Inhibition, 0.625 uM, replicate 2 (beta-catenin [2]) | DLD1 TCF c2 BrightGlo % Inhibition, 0.625 uM, replicate 3 (beta-catenin [2]) | DLD1 TCF c2 BrightGlo % Inhibition, 1.25 uM, replicate 1 (beta-catenin [2]) | DLD1 TCF c2 BrightGlo % Inhibition, 1.25 uM, replicate 2 (beta-catenin [2]) | DLD1 TCF c2 BrightGlo % Inhibition, 1.25 uM, replicate 3 (beta-catenin [2]) | DLD1 TCF c2 BrightGlo % Inhibition, 2.5 uM, replicate 1 (beta-catenin [2]) | DLD1 TCF c2 BrightGlo % Inhibition, 2.5 uM, replicate 2 (beta-catenin [2]) | DLD1 TCF c2 BrightGlo % Inhibition, 2.5 uM, replicate 3 (beta-catenin [2]) | DLD1 TCF c2 BrightGlo % Inhibition, 5 uM, replicate 1 (beta-catenin [2]) | DLD1 TCF c2 BrightGlo % Inhibition, 5 uM, replicate 2 (beta-catenin [2]) | DLD1 TCF c2 BrightGlo % Inhibition, 5 uM, replicate 3 (beta-catenin [2]) | DLD1 TCF c2 BrightGlo % Inhibition, 10 uM, replicate 1 (beta-catenin [2]) | DLD1 TCF c2 BrightGlo % Inhibition, 10 uM, replicate 2 (beta-catenin [2]) | DLD1 TCF c2 BrightGlo % Inhibition, 10 uM, replicate 3 (beta-catenin [2]) | DLD1 TCF c2 BrightGlo % Inhibition, 20 uM, replicate 1 (beta-catenin [2]) | DLD1 TCF c2 BrightGlo % Inhibition, 20 uM, replicate 2 (beta-catenin [2]) | DLD1 TCF c2 BrightGlo % Inhibition, 20 uM, replicate 3 (beta-catenin [2]) | also measured
Ac-[αAllylPro]D[tBuAla][B5(3)]DDAAFN[PyrS2″][Phe(2-Cl)][Bta][Thr(ol)] (staple 1-4, 4-11) [I-1082] | – | – | – | – | – | – | – | – | – | – | – | – | – | – | – | – | – | – | DLD1 TCF c2 BrightGlo % Inhibition (TCF/LEF luciferase reporter; 0.625 uM by plate map, replicate 1) (beta-catenin [1]): 14.1%; DLD1 TCF c2 BrightGlo % Inhibition (TCF/LEF luciferase reporter; 0.625 uM by plate map, replicate 2) (beta-catenin [1]): 17.4%; DLD1 TCF c2 BrightGlo % Inhibition (TCF/LEF luciferase reporter; 0.625 uM by plate map, replicate 3) (beta-catenin [1]): 20.3%; DLD1 TCF c2 BrightGlo % Inhibition (TCF/LEF luciferase reporter; 1.25 uM by plate map, replicate 1) (beta-catenin [1]): 14%; DLD1 TCF c2 BrightGlo % Inhibition (TCF/LEF luciferase reporter; 1.25 uM by plate map, replicate 2) (beta-catenin [1]): 21.5%; DLD1 TCF c2 BrightGlo % Inhibition (TCF/LEF luciferase reporter; 1.25 uM by plate map, replicate 3) (beta-catenin [1]): 24%; DLD1 TCF c2 BrightGlo % Inhibition (TCF/LEF luciferase reporter; 2.5 uM by plate map, replicate 1) (beta-catenin [1]): 17.3%; DLD1 TCF c2 BrightGlo % Inhibition (TCF/LEF luciferase reporter; 2.5 uM by plate map, replicate 2) (beta-catenin [1]): 36.1%; DLD1 TCF c2 BrightGlo % Inhibition (TCF/LEF luciferase reporter; 2.5 uM by plate map, replicate 3) (beta-catenin [1]): 37.9%; DLD1 TCF c2 BrightGlo % Inhibition (TCF/LEF luciferase reporter; 5 uM by plate map, replicate 1) (beta-catenin [1]): 38.5%; DLD1 TCF c2 BrightGlo % Inhibition (TCF/LEF luciferase reporter; 5 uM by plate map, replicate 2) (beta-catenin [1]): 56.2%; DLD1 TCF c2 BrightGlo % Inhibition (TCF/LEF luciferase reporter; 5 uM by plate map, replicate 3) (beta-catenin [1]): 62%; DLD1 TCF c2 BrightGlo % Inhibition (TCF/LEF luciferase reporter; 10 uM by plate map, replicate 1) (beta-catenin [1]): 63.9%; DLD1 TCF c2 BrightGlo % Inhibition (TCF/LEF luciferase reporter; 10 uM by plate map, replicate 2) (beta-catenin [1]): 71%; DLD1 TCF c2 BrightGlo % Inhibition (TCF/LEF luciferase reporter; 10 uM by plate map, replicate 3) (beta-catenin [1]): 75%; DLD1 TCF c2 BrightGlo % Inhibition (TCF/LEF luciferase reporter; 20 uM by plate map, replicate 1) (beta-catenin [1]): 76.5%; DLD1 TCF c2 BrightGlo % Inhibition (TCF/LEF luciferase reporter; 20 uM by plate map, replicate 2) (beta-catenin [1]): 77.1%; DLD1 TCF c2 BrightGlo % Inhibition (TCF/LEF luciferase reporter; 20 uM by plate map, replicate 3) (beta-catenin [1]): 79.9%
Ac-[αAllylPro]D[tBuAla][B5(3)][3Thi][TfeGA]AAFN[PyrS2″]D[Bta]Q-NH2 (staple 1-4, 4-11) [I-1001] | -1.5% | 9.3% | 4.5% | -7% | -2.8% | 6.1% | -8% | -7.6% | -5% | -6.7% | -6.7% | -0.7% | -3.6% | -4.8% | -7.4% | -1.2% | 7.5% | 3.5% | –
Ac-[αAllylPro]D[tBuAla][B5(3)]D[TfeGA]AAFF[PyrS2″]F[Bta]Q-NH2 (staple 1-4, 4-11) [I-988] | 11% | 10.7% | 15.5% | 5.7% | 22.3% | 21.2% | 13.3% | 28.8% | 33.4% | 32% | 57.8% | 62% | 61.5% | 72% | 76.2% | 78.1% | 81.3% | 81.9% | –
Ac-FDA[RdN″]DDAAFV[S7]FWQ-NH2 (staple 4-11, Stapled peptide composition) [I-1] | – | – | – | – | – | – | – | – | – | – | – | – | – | – | – | – | – | – | EC50 [3]: ≥ 10 µM
